Measured values: the supplement of paper PMC7125110
± gives the standard error. This sample holds only a part of the variants without activity.

B1: glmS ribozyme (parent)
chain: AUAAAAGCGCCAGAACUACAGAAAUGUAGUUGACGAGGAGGAGGUUUAUCGAAUUUUCGGCGGAUGCCUCCAAA

How the values were obtained:
Details in all cases: with glucosamine-6-phosphate
glucosamine-6-phosphate [1] = variants of: B1; assay: self-cleavage kobs at 160 uM GlcN6P; higher = faster cleavage; RNA array
Method in brief: (§1)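 Barcoded ribozyme variants on sequenced MiSeq chips were transcribed in situ by E. coli RNA polymerase and followed at 37 °C through a hybridised Cy3 probe. Glucosamine-6-phosphate at 40 μM to 10 mM in HEPES/KCl/Mg(OAc)2 buffer was flowed in, and tiles were imaged over ~14 h. Signals were normalised to baseline and to non-cleaving reference variants, and per-tile medians were fit to one- or two-exponential decays to give kobs. Weighted Michaelis–Menten fits across concentrations gave kcat and KM.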

glucosamine-6-phosphate [2] = variants of: B1; assay: self-cleavage kobs at 640 uM GlcN6P; higher = faster cleavage; RNA array
Method in brief: as §1

glucosamine-6-phosphate [3] = variants of: B1; assay: self-cleavage kobs at 2500 uM GlcN6P; higher = faster cleavage; RNA array
Method in brief: as §1

glucosamine-6-phosphate [4] = variants of: B1; assay: self-cleavage kobs at 10000 uM GlcN6P; higher = faster cleavage; RNA array
Method in brief: as §1

Variant	self-cleavage kobs at 160 uM GlcN6P (glucosamine-6-phosphate [1]) [s⁻¹]	self-cleavage kobs at 640 uM GlcN6P (glucosamine-6-phosphate [2]) [s⁻¹]	self-cleavage kobs at 2500 uM GlcN6P (glucosamine-6-phosphate [3]) [s⁻¹]	self-cleavage kobs at 10000 uM GlcN6P (glucosamine-6-phosphate [4]) [s⁻¹]
AUAAAAGCGCCAGAACUACAGAAAUGUAGUUGACGAGGAGGAGGUUUAUCGCACUUUCGGCGGAUGCCUCCAAA [A52C U54C]	< 1e-05	–	–	–
AUAAAAGCGCCAGAACUACAGAAAUGUAGUUGACGAGGAGGAGGUUUCUCGUAUUUUCGGCGGAUGCCUCCAAA [A48C A52U]	< 1e-05	< 1e-05	< 1e-05	< 1e-05
AUAAAAGCGCCAGAGCUACAGAAAUGUAGUUGACGAGGAGGAGGUUUAUCGAAUUUUGGGCGCAUGCGUCCAAA [A15G C58G G63C C68G]	0.000162 ± 4.4e-05	–	–	–
AUAAAAGCGCCAGAACUACAGAAAUGUAGUUGACGAGGAGGAGGUUUAUCUAAUUUUCGGUGGAUGCCUCCAAA [G51U C61U]	< 1e-05	< 1e-05	< 1e-05	< 1e-05
AUAAAAGCCCCAGAACUACAGAAAUGUAGUUGAGGAGGAGGAGGUUUAUCGAAUUUUCGGGGGAUGCCUCCAAA [G9C C34G C61G]	< 1e-05	–	< 1e-05	< 1e-05
AUAAAAGCGCCAGAACUACAGAAAUGUAGUUGACGAGGAGGCCGUUUAUCGAAUUUUCGGCGGAUGCAUCAAAA [A42C G43C C68A C71A]	< 1e-05	–	< 1e-05	–
AUAAAAGCGCCAGGACUACAGAAAUGUAGUUGACGAGGCUGAGGUAUAUCGACUUUUCGGCGGAUGCCUCCAAA [A14G A39C G40U U46A A53C]	< 1e-05	–	< 1e-05	–
AUAAAAGCGACAGAACUACAGAAAUGUAGUUGAAGAAGAGGAGGUCUAUCGAAUUUUCGGCGGAUGGCUCCAAA [C10A C34A G37A U46C C67G]	< 1e-05	–	–	–
AUAAAAGCGCCAGAACUACAGAAAUGUAGUUGACGAGGAGGAAGUUUAUCGAAUUUUCGGGGGAUGUCUUCAAA [G43A C61G C67U C70U]	< 1e-05	< 1e-05	–	–
AUAAAAGCGCCAGAACUACAGAAAUGUAGUUGACGAGGAGGAGGUUUAUCUAAUUCCCGGCGUAUGCCUCCAAA [G51U U56C U57C G63U]	< 1e-05	< 1e-05	< 1e-05	< 1e-05
AUAAAAGCGCCAGAACUACAGAAAUGUAGUUGACGAGGAGGAGGUUUAUCGAAUUUUCGGCGUCUGCCUCCAAA [G63U A64C]	< 1e-05	< 1e-05	< 1e-05	< 1e-05
AUAAAAGCGCCAGAACUACAGAAAUGUAGUUUACGAGGAGGAGGUUUUUCGAAUUUUCGACGGAUGCCUCCAAA [G32U A48U G60A]	< 1e-05	–	–	–
AUAAAAGCGCCAGUACUACAGAAAUGUAAUUGACGAGGAGGAGGUUUAUCGAAUUUUCGGCGUAUGCCUCCAAA [A14U G29A G63U]	< 1e-05	–	< 1e-05	–
AUAAAAGCGCCAGAACUACAGAAAUGUAGUAGAAGAGGAGGAGGUUUAUCGAAUAUUCGGCGGAUGGCUCCAAA [U31A C34A U55A C67G]	< 1e-05	< 1e-05	< 1e-05	–
AUAAAAGCGCCAGAACUACAGAAAUGUAGUUGACGAGGAGGAGGCUUAUCGAAUUUUCGGCGGUUGCCUCCAAA [U45C A64U]	< 1e-05	< 1e-05	–	–
